Results from the nanobody polyreactivity screen of Harvey et al. (2022).

assay: yeast display, Sf9 membrane polyspecificity reagent, FACS + sequencing; frameworks hold sequencing errors
Outline: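 Polyreactivity labels are assigned by the sorting gate from which each nanobody was recovered. The gates were low and high (top ~1%), set on anti-HA fluorescence for expression and streptavidin fluorescence for reagent binding. Before sorting, galactose-induced (36–48 hours) yeast display cells were stained for 1 hour at 4 °C with 10% biotinylated, detergent-solubilized Sf9 membrane reagent.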

Sequence	polyreactivity (PSR sort gate)
QVQLVESGGGLVQAGGSLRLSCAASGFTFRYYAMGWYRQAPGKERELVAAITSRGGSTYYADSVKGRFTISRDNAKNTVYLQMNSLKPEDTAVYYCAAETWRPSPYSRVSTYDYWGQGTQVTVSS	high polyreactivity
QVQLVDSGGGLVQAGGSLRLSCAASGLTFYSNAMGWYRQAPGKEREFVASITRRTGITFYAVSVKGRFTISRDNAKNTVYLQMNSLKPYDTAVYYCATRGGYPKGYGYLAFNYWGQGTQVTVSS	high polyreactivity
QVQLVESGGGLVQAGGSLRLSCAASGRTFRGNVMGWYRQAPGNEREFVAASTRSGSNTYYADSVKGRFTISRDYAKTTVYLQMNSLKPEDTAVYDCAKSVLLGYKRHDSWGQGTQVTVSS	high polyreactivity
QFQLVESGGGLVQAGGSLRLSCAASGYIFGRYAMGWYRQPPGKERELVAAISSTGDSTYYADSVKGRFTISRDYAKNTVYLQMNSQKPEDTAVYYCNAVVPRYSYGRYYYWGQGTQVTVSS	high polyreactivity
QVQLVESGGGLVQAGGSLRLSCAASGSTFDIYAMGCYRQAPGKERELVAAITFSGGSTYADSVKGRFTISRDNAKNTVYFQMNSLKPEDTAVYYCAVDGGEFSSYGYWGQGTQVTVSS	low polyreactivity
QVQLVESGGGLVQAGGSLRLSCAASGSIFYGNAMGRYRQAPGKERELVAGITGYGSPTYYADSVKGRFTISRDNAKNTVYLQMNSLKPEVTAVYYCARLTRTSRGMYDYWGQGTQVTVSS	high polyreactivity
QVQLVESGGGLVQAGGSLRLSCAASGSTFRIYAMGWYRQAPGREREFVAAITWTGGSTYYADSVKGRFTISRDNAKNTVYLQMNSLKPEDTADYYCAARQLSDYYWGQGTQVTVSS	high polyreactivity
QVQHVESRGGLVQAGGSLRLSCAASGRTFVRYAMGWYRQAPGKERELVAAISGDGASTYYADSVKGRFTISRDNAMNTVYLQMNSLKPEDTAVYYCNARSIRRYYYPDYDYWGQGTQVTVSS	high polyreactivity
QVQLVESGGGLVQAGGSLRLSCAASGRTLKYNAKGGNRQAPGKARELVAALTNSGTRTYYADSVKGRFTISRDNAKNTVYLQMNSQKPEDTAVYYCAKDSYPYLRVGHLKYRVKTYGHWGQGTQVTVSS	high polyreactivity
QVQLVESGGGLVQAGGSLRVSCAASGRTFYRKAMGWYRHAPGKERSLVAAISSGGSTTYADSVKGRFTISRDNAKNTVYLQMISLKPEDTAVYYCAARSHAGSVCPRLKEYDFWGQGTQVTVSS	low polyreactivity
QVQLVESGGGLVQSGGSLRLSCAASGLIFPYYAMGWYRQAPGKERELVAAITGNGGRTYYADSVKGRFTISRDNAKYNVYLQMNSLKPEDTAVYYCAAAGKASSDYYVLGGYWGQGTQVTVSS	high polyreactivity
QVQLQESGGVLEQARGSLRLSCAASGFIFARNYMGWYSQAPGKERELVAGIGVGAITNYADSVKGRFTISRDNAKNTVYLQMNSLETEESAVYYCAVGDTVLGYHYYWGQGTQVTVSN	low polyreactivity
QVQLQESGGGLVQAGGSLRLSCAACGNIFKYTNMGSYRQAPGKERELVATISDGASTNYADSVKGRFTISRDNAINTVYLQMNSLKPEDTAVYYCNAEGYVRFNYWGQCTQVTVSS	high polyreactivity
QVQLVESGGGLVQAGGSLRLSCAASGSIFYSNAMGWYRQAPGKERQLVAAIDSGTSTNYADSVKGRFTISRDNAKNTVYLQMNSLKPEDTAVYYCARLLGPVRDKYDYDYWGQGTQVTVSS	low polyreactivity
QVQLVESGGGLVQAGGSLRLSCAASGRILDYNAMGWYRPAPGKERELVAAITRRGGSTYYADSVKGRFTISRDNAKNTVYLQMNSLKPEDTAVYYCNARWSTTAHTRFGYWGQGTQVTVSS	low polyreactivity
QVQLVESGGGLVQAGGSLRLSCAASGFIFYPYAMGSYRQAPGKERELVAAITSSGGSTYYADSVKGRFTISRDNAKNTVYLQMNSLKPEDTAVYYCAAYTSYYGTIIAFRYYYWGQGTQVTVSS	high polyreactivity
QVQLVESGGGLVQAGGSLRLSCAASGAIFVAYAMGWYRQAPGKDRELVAAITYSAGSTYYADSVKGRFTISRDNAKNTVYLQMNSLKPEDTAVYYCAADALVYSFIGYEYWGQGTQVTLSS	low polyreactivity
QVQLVESGGGLVQAGGSLRLSCAASGSTFDSYAMGWYRQAPGKEREFVAAITWSGGRTYYADCVKGRFTISRDNAKNTVYLQMNSLKPEDTAVYDCSATDPWGWDYYYWGQGSQVTVSS	low polyreactivity
QVHLVESGGGLVQAGGSLRLSCAASGRTFGWNVMGWYRQAPGKERELVAAISGSGGSTYYADSVKVRFTISRDNAKNTVYLQMNSLKPEDTAVYYCAALYGPGREYDYWGQGTQVTVSS	low polyreactivity
QVQLVESGGGLVQAGGSLRLSCAASGSTFIAYTMGWYRQAPGKERELVAAISGTGGTTYADSVKGRFTISRDNAKNTVYLQMNSLKPEDTAVYYCAAQYRYTYWGQGTQVTVSS	low polyreactivity
QVQLVESGGGLVQAGGSLRLSCAASGNTFLPYAMGWYRQAPGKERELVAAISWSGGSTYYADSVKGRFTISRDNAKNTVYLQMNSLKPEDTAVYYCARRGYQRYLSSYYYWGQGTQVTVSS	high polyreactivity
QVQLVESGGGLVQAGGSLRLSCAASGRIFYLYAMGWYRQAPGKDRELVAAITWSGGSTTYADSVKGRFTISRDTAKNTVYLQMNSLKPEDTAVYYSNADGWIFPSFSPMDYWGQGTQVTVSS	low polyreactivity

Sequence	polyreactivity (PSR sort gate)
QVQLVESGGGLVQAGGSLRLSCAASGRNFSRNAMGWYRQAPGKERELVAAISSGGRTKYADSVKGRFTISRDNAKNTVYLQMNSLKPEDTAVYYCAATDPRSWYGRGRYDYWGQGTQVTVSS	high polyreactivity
QVQLVESGGGLVQAGGSLRLSCAASGFNFRANGMGWYRQAPGKERELVATITSGGTTNYADSVKGRFTISRDNAKNTVYLQMNSLKPEDTAVYYCDKRFGPAYFRLYDYWGQGTQVTVSS	low polyreactivity
QVQIVESGGGLLQAGGSLRLSCAASGGIFGRYAMGWYRQAPGKERELVAAITTRGTSTYYADSVKGRFTISRDNAMNTVYLQMNSLKPEDTAVYYCSAAYGRHPSSGSWGQGTQVTVSS	high polyreactivity
QVQLVESGGGLVQAGGSLRLSCAASGRIFRSNAMGWYRQAPGKERELVATISRRGGSTYYADSVKGRFTISRDNAKNTVYLQMNSLKPEDTAVYYCNTRNSGSLDLYNTMDYWGQGTQVTVSS	high polyreactivity
QVQLVESGRGLVQAGGSLRLSCAASGITCPVNVMGWYRQAPGKERELVAAISTSGGSTYYADSVKGRFTISRDNAKNTVYLQMNSLKPEDTAVYYCARQYIRSSYGYWGQGTQVTVSS	low polyreactivity
QVQLVESGGGLVQAGGSLRLSCAASGRIFDGNARGWYIQAPGKERELVAAISRNGGTYYADSVKGRFTISRDNAKNTVYLQMNSLKPEDTAVYYCAADPSSVGYHVEYDYWGQGTQVTVSS	low polyreactivity
QVQLVESGGGLVQAGGSLRLSCAASGRIFHGYAMGWYRQAPGKERELVAAISATGGSTYYADSVKGRFTISRDNAKNTVYLQMNSLKPEDTAVYYCARTNFYRSYDPGGRFYNYDYWGQGTQVTVSS	low polyreactivity
QVQLVESGGGLVQAGCSLRLSCAASGSTFFYYAMGWYRQSPGKERELVARISGGGSTNYADSVKGRFTISRDNAKNTVYLQMNSLKPEDTAVYYCAADRYDYYRYSYGRYGYWGQGTQVTVSS	high polyreactivity
QVQLVESGGGLVQAGGSLRLSCAASGRTFGGYAMGSYRQAPGKERELVAAISRSGGRTYYADSVKGRFTISRDNAKNTVYLQMNSLKPEDSAVYYWADRLYVGPTAMDYWGEGTQVTVSS	high polyreactivity
QVQLVESGGGLVQAGGSLRLSCAASGSIFWYYGMGWYRPAPAKERELVAAISSGGSTNYADSVKGRFAISRDNAKNTVYIQMNSLKPEDTAVYYCAVRFTFPRYPASYSRYYYWGQGTQVTVSS	high polyreactivity
QVQLVESGGGLVQAGGSLRLSCAASGRIFSDNAMGWYREAPGKERELVAAITWSSGSTYADSVKGRFTISRDNAKNTVYLQMNSLKPEDTAVYYCNVSPGYEPLDHELDYWGQGTQVTVSS	low polyreactivity
QDQLVESGGGLLQAGGTLRLSCAASGPTFRAKAMGWNRQSPGKERELVAAITWDGGSRYYADSVKGRFTISRDYAKNTVYLQMNSLKPEYTAVYYCNTYPYLWGQGTLVTVSS	low polyreactivity
QVQLVESGGGLVQAGGSLRLSCAASGFTFFSNAMGWYRQAPGKDRELVAAITSSGGSTYADSVKGRFTISRDNAKNTVYLQMNSLKPEDTAVYYCAADAQAPPCGFKEYDYWGQGTQVTVSS	low polyreactivity
QVQLVESGGGLVQAGGSLRLSCAASGRIFGSYAMGWYRQAPGKERELVAAITRSGGSTYYADSVKGRFTISRDNAKNTVYLQMNSLKPEDTAVYYCAAYFRFSGSAKFGYWGQGTQVTVSS	high polyreactivity
QVQLVESGGGLVQAGGSLRLSCAASGSTFYSNVMGWYRQAPGKERELVAAISQSGGRTFYADSVKGRFTISRDNAKNTVYLQMNSLIPEDTAVYYGNYVRAQPRNPYDYWGQGTQVTVSS	high polyreactivity
QVQLVESGGGLVQAGGSLRLSCAASGITFWVYAMGWYRQAPGKERELVAAISRRGGSTSYADSVKGRFTISRDNAKNTVYLQMNSLKPEDTAVYYCAATTYTHPYGYWGQGTQVTVSS	high polyreactivity
QVQLVESGGGLVQAGGSLRLSCAASGITFGYYAMGWYRQAPGKERELVATITDGGGTKYADSVKGRFTISRDNAKNTVYLQINSLKPEDTAVYYCAAGLRHVYATEYDYWGQGTQVTVSS	low polyreactivity
QVQLVESGGGFVQAGGSLRLSCAASGGTFYRYAMGWYRQAPGKERELVAVISRGLRTNYADSVKGRFTISRDNAKNTVYFQMNSLQPEDTAVYYCAAHQYRVYRHGFDYWGQGTQVTVSS	high polyreactivity
QVQLVESGGGLVQAGGSLRLSCAASGRIIRWNAMGWYRQAPGKERELVAAITYSSGSTYYADSVKGRFTISRDNAKNTVYLQLNSLKPEDTAVYYCAAYSYGWDYSYDYWGQGTQVNVSS	low polyreactivity
QVQRVESGGGLVQAGGSLRLSCAASGRTFPWNVMGWYRQAPGKERELVAAISWSSGRTYYADSVKGRFTISRDNAKNTVYLQMNSLKPEDTAVYYCAAVYKVHSGLYEYWGQGTQVTVSS	high polyreactivity
QVQLVESGGGLVQAGGSLRLSCAASGSISYEFAMGWYRQAPGKERELVASIDSDGAGTYYADSVKGRFTISRDNAKNTVYLQMNSLKPEDTAVYYGNAEWYYPYYYSRMDYWGQGTQVTVSS	low polyreactivity
